± gives the standard deviation of the averaged measurements.
Assays:
Saccharomyces cerevisiae [1] = test: protein stability index of tFT-peptide fusion (C-terminal peptide) (PSI (0-1 scale)); higher = more stable (slower turnover)
Description: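 MPS profiling in S. cerevisiae of the tFT-X12 degron library: putative degron peptides plus stable controls, 12 aa, fused to the C-terminus of a sfGFP-mCherry timer. Cells are FACS-sorted into 8 mCherry/sfGFP bins and deep-sequenced. PSI runs from 0 (unstable) to 1 (stable). Backgrounds are wild type, das1Δ and doa10Δ at 30 °C, and wild type, das1Δ, cdc34-1 and cdc53-1 at 37 °C; 2-3 technical replicates each.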

Saccharomyces cerevisiae [2] = test: as above; details: genetic background: wild type; temperature: 30 C
[3] = genetic background: cdc34-1, temperature: 37 C
[4] = genetic background: cdc53-1, temperature: 37 C
[5] = genetic background: das1 deletion, temperature: 30 C
[6] = genetic background: das1 deletion, temperature: 37 C
[7] = genetic background: doa10 deletion, temperature: 30 C
[8] = genetic background: wild type, temperature: 30 C
[9] = genetic background: wild type, temperature: 37 C
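Also: PSI is a weighted mean of sequencing reads over stability bins, variants kept only with over 10 reads, mCherry proximal and sfGFP distal, peptide attached via GGGS linker.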

Row | Sequence | protein stability index (Saccharomyces cerevisiae [1]; [3]) | protein stability index (Saccharomyces cerevisiae [1]; [4]) | protein stability index (Saccharomyces cerevisiae [1]; [5]) | protein stability index (Saccharomyces cerevisiae [1]; [6]) | protein stability index (Saccharomyces cerevisiae [1]; [7]) | protein stability index (Saccharomyces cerevisiae [1]; [8]) | protein stability index (Saccharomyces cerevisiae [1]; [9]) | protein stability index (Saccharomyces cerevisiae [2])
1 | SFLCILIFPFFP | 0.497 ± 0.051 | 0.6 ± 0.015 | 0.411 ± 0.02 | 0.6 ± 0.015 | 0.391 ± 0.011 | 0.408 ± 0.028 | 0.5623 ± 0.0044 | 0.469 ± 0.034
2 | WVVLVCGFVLLG | 0.246 ± 0.0069 | 0.369 ± 0.0077 | 0.243 ± 0.042 | 0.442 ± 0.0073 | 0.22 ± 0.0029 | 0.234 ± 0.019 | 0.361 ± 0.012 | 0.3175 ± 0.0027
3 | LVAGFVFIFFYR | 0.356 ± 0.053 | 0.488 ± 0.021 | 0.339 ± 0.033 | 0.49 ± 0.018 | 0.298 ± 0.0043 | 0.319 ± 0.022 | 0.46 ± 0.0078 | 0.372 ± 0.059
4 | FFVKGFRLLVFQ | 0.454 ± 0.039 | 0.481 ± 0.013 | 0.421 ± 0.04 | 0.573 ± 0.014 | 0.461 ± 0.019 | 0.384 ± 0.014 | 0.516 ± 0.046 | 0.47 ± 0.015
5 | YYQVSQKIQRKQ | 0.681 ± 0.012 | 0.708 ± 0.021 | 0.639 ± 0.023 | 0.726 ± 0.042 | 0.323 ± 0.0077 | 0.371 ± 0.018 | 0.584 ± 0.014 | 0.435 ± 0.065
6 | RVRRETRLRQIA | 0.597 ± 0.0087 | 0.732 ± 0.043 | 0.65 ± 0.024 | 0.71 ± 0.021 | 0.1423 ± 0.00049 | 0.147 ± 0.0031 | 0.269 ± 0.0076 | 0.27 ± 0.047
7 | FMANRYICQKTL | 0.522 ± 0.074 | 0.731 ± 0.018 | 0.635 ± 0.026 | 0.727 ± 0.01 | 0.0893 ± 0.023 | 0.0967 ± 0.022 | 0.168 ± 0.017 | 0.185 ± 0.012
8 | KDIFQIYTLYVF | 0.407 ± 0.011 | 0.4611 ± 0.0014 | 0.329 ± 0.035 | 0.502 ± 0.023 | 0.277 ± 0.0099 | 0.3 ± 0.022 | 0.467 ± 0.012 | 0.39 ± 0.034
9 | GSVHLTKERHLV | 0.66 ± 0.028 | 0.74 ± 0.03 | 0.648 ± 0.032 | 0.7436 ± 0.0024 | 0.207 ± 0.0061 | 0.241 ± 0.036 | 0.499 ± 0.0063 | 0.319 ± 0.016
10 | SGRAWRLRMHVI | 0.663 ± 0.02 | 0.749 ± 0.011 | 0.661 ± 0.037 | 0.757 ± 0.018 | 0.263 ± 0.0029 | 0.269 ± 0.012 | 0.459 ± 0.041 | 0.406 ± 0.17
11 | VWWWGAVGWLMV | 0.572 ± 0.036 | 0.602 ± 0.028 | 0.528 ± 0.026 | 0.628 ± 0.016 | 0.392 ± 0.017 | 0.416 ± 0.018 | 0.547 ± 0.01 | 0.454 ± 0.0008
12 | VGVSCVVCVCGV | 0.493 ± 0.0071 | 0.471 ± 0.02 | 0.289 ± 0.034 | 0.514 ± 0.0077 | 0.2604 ± 0.0024 | 0.295 ± 0.017 | 0.4873 ± 0.0037 | 0.3704 ± 0.0011
13 | CFVISVLFFFVG | 0.292 ± 0.011 | 0.491 ± 0.035 | 0.288 ± 0.035 | 0.467 ± 0.015 | 0.284 ± 0.024 | 0.286 ± 0.013 | 0.436 ± 0.03 | 0.444 ± 0.025
14 | VGGLGWCWVCMA | 0.573 ± 0.041 | 0.718 ± 0.035 | 0.595 ± 0.017 | 0.75 ± 0.013 | 0.132 ± 0.01 | 0.158 ± 0.023 | 0.246 ± 0.0056 | 0.25 ± 0.016
15 | VIFFEFFLSFGE | 0.267 ± 0.0089 | 0.481 ± 0.024 | 0.281 ± 0.026 | 0.452 ± 0.026 | 0.253 ± 0.033 | 0.32 ± 0.025 | 0.433 ± 0.0069 | 0.413 ± 0.0071
16 | TCPFTIHRLKVG | 0.63 ± 0.01 | 0.7483 ± 0.0035 | 0.617 ± 0.017 | 0.7458 ± 0.0033 | 0.118 ± 0.018 | 0.137 ± 0.028 | 0.218 ± 0.012 | 0.238 ± 0.077
17 | APTMAIIVVHVR | 0.237 ± 0.022 | 0.291 ± 0.013 | 0.22 ± 0.034 | 0.3582 ± 0.0027 | 0.1859 ± 0.0016 | 0.207 ± 0.036 | 0.359 ± 0.019 | 0.3059 ± 0.0021
18 | FRSMFLFLNLLF | 0.458 ± 0.05 | 0.3523 ± 0.00055 | 0.391 ± 0.048 | 0.73 ± 0.02 | 0.559 ± 0.015 | 0.371 ± 0.019 | 0.574 ± 0.025 | 0.412 ± 0.014
19 | WVCCFVWGCLIR | 0.2 ± 0.044 | 0.187 ± 0.0078 | 0.239 ± 0.021 | 0.353 ± 0.027 | 0.295 ± 0.0035 | 0.233 ± 0.019 | 0.303 ± 0.0074 | 0.281 ± 0.0081
20 | FLGPMRVLVSSV | 0.568 ± 0.03 | 0.606 ± 0.032 | 0.424 ± 0.03 | 0.6003 ± 0.0019 | 0.401 ± 0.015 | 0.425 ± 0.026 | 0.565 ± 0.0044 | 0.522 ± 0.073

Row | Sequence | protein stability index (Saccharomyces cerevisiae [1]; [3]) | protein stability index (Saccharomyces cerevisiae [1]; [4]) | protein stability index (Saccharomyces cerevisiae [1]; [5]) | protein stability index (Saccharomyces cerevisiae [1]; [6]) | protein stability index (Saccharomyces cerevisiae [1]; [7]) | protein stability index (Saccharomyces cerevisiae [1]; [8]) | protein stability index (Saccharomyces cerevisiae [1]; [9]) | protein stability index (Saccharomyces cerevisiae [2])
21 | VSLSEVAIIVHG | 0.544 ± 0.025 | 0.611 ± 0.0098 | 0.418 ± 0.035 | 0.596 ± 0.014 | 0.391 ± 0.022 | 0.426 ± 0.022 | 0.5739 ± 0.0012 | 0.517 ± 0.026
22 | EVVFHVFLVGLV | 0.314 ± 0.015 | 0.451 ± 0.015 | 0.292 ± 0.035 | 0.512 ± 0.018 | 0.203 ± 0.012 | 0.274 ± 0.013 | 0.464 ± 0.0058 | 0.362 ± 0.0059
23 | YVRHDKLILSFC | 0.492 ± 0.026 | 0.529 ± 0.041 | 0.427 ± 0.021 | 0.5562 ± 0.0027 | 0.3915 ± 0.002 | 0.414 ± 0.019 | 0.54 ± 0.011 | 0.489 ± 0.013
24 | IACISCLLCVVV | 0.608 ± 0.042 | 0.649 ± 0.038 | 0.479 ± 0.025 | 0.607 ± 0.017 | 0.479 ± 0.022 | 0.504 ± 0.0075 | 0.589 ± 0.0073 | 0.508 ± 0.015
25 | CGFVCGLCLCRV | 0.552 ± 0.052 | 0.586 ± 0.016 | 0.364 ± 0.04 | 0.605 ± 0.042 | 0.345 ± 0.023 | 0.381 ± 0.031 | 0.572 ± 0.013 | 0.484 ± 0.0062
26 | QPTGYFKLIIIK | 0.317 ± 0.029 | 0.393 ± 0.072 | 0.3 ± 0.044 | 0.473 ± 0.047 | 0.38 ± 0.0083 | 0.323 ± 0.067 | 0.4476 ± 0.0013 | 0.3976 ± 0.0014
27 | LVLVVFCPLWFW | 0.483 ± 0.035 | 0.581 ± 0.024 | 0.401 ± 0.037 | 0.5794 ± 0.0036 | 0.4422 ± 0.00092 | 0.388 ± 0.0094 | 0.56 ± 0.024 | 0.43567 ± 0.00031
28 | LPLSPPPLPSSR | 0.6697 ± 0.0028 | 0.72639 ± 0.00044 | 0.634 ± 0.019 | 0.704 ± 0.014 | 0.639 ± 0.022 | 0.663 ± 0.032 | 0.675 ± 0.018 | 0.432 ± 0.032
29 | EKKNQTAYNKTV | 0.691 ± 0.035 | 0.71 ± 0.023 | 0.644 ± 0.013 | 0.707 ± 0.022 | 0.149 ± 0.021 | 0.176 ± 0.028 | 0.365 ± 0.0059 | 0.39 ± 0.018
30 | IRHALHFRVVAV | 0.505 ± 0.035 | 0.545 ± 0.016 | 0.432 ± 0.015 | 0.568 ± 0.0082 | 0.3943 ± 0.0036 | 0.419 ± 0.013 | 0.5286 ± 0.0022 | 0.48 ± 0.0076
31 | IYTLIINKSKAQ | 0.686 ± 0.024 | 0.685 ± 0.011 | 0.626 ± 0.046 | 0.696 ± 0.072 | 0.282 ± 0.024 | 0.362 ± 0.11 | 0.524 ± 0.017 | 0.429 ± 0.041
32 | LWGLVWGGVWGV | 0.683 ± 0.039 | 0.722 ± 0.013 | 0.564 ± 0.014 | 0.729 ± 0.012 | 0.5683 ± 0.0018 | 0.573 ± 0.015 | 0.705 ± 0.0096 | 0.439 ± 0.015
33 | VSLHVFVFLLAS | 0.255 ± 0.02 | 0.347 ± 0.0036 | 0.249 ± 0.025 | 0.4219 ± 0.0024 | 0.189 ± 0.012 | 0.239 ± 0.027 | 0.378 ± 0.0044 | 0.309 ± 0.043
34 | TGRLFVSLRVWY | 0.321 ± 0.0046 | 0.375 ± 0.055 | 0.295 ± 0.035 | 0.467 ± 0.0072 | 0.302 ± 0.015 | 0.305 ± 0.006 | 0.442 ± 0.0058 | 0.437 ± 0.038
35 | LHLSSFVILLEL | 0.36297 ± 6.8e-05 | 0.317 ± 0.035 | 0.353 ± 0.024 | 0.458 ± 0.018 | 0.478 ± 0.023 | 0.346 ± 0.014 | 0.437 ± 0.021 | 0.421 ± 0.021
36 | PFFVLFSLAFLF | 0.375 ± 0.018 | 0.439 ± 0.033 | 0.302 ± 0.04 | 0.4886 ± 0.00064 | 0.2698 ± 0.0019 | 0.278 ± 0.017 | 0.422 ± 0.015 | 0.279 ± 0.07
37 | PSSVKLRVPSLY | 0.672 ± 0.029 | 0.762 ± 0.033 | 0.623 ± 0.021 | 0.7309 ± 0.00087 | 0.61091 ± 0.00013 | 0.636 ± 0.015 | 0.715 ± 0.033 | 0.7075 ± 0.0025
38 | VRGLGFRWVWGW | 0.747 ± 0.034 | 0.762 ± 0.011 | 0.664 ± 0.0089 | 0.7668 ± 0.0056 | 0.666 ± 0.011 | 0.668 ± 0.013 | 0.772 ± 0.018 | 0.711 ± 0.038
39 | PLLLFFFPRLLF | 0.579 ± 0.046 | 0.62 ± 0.025 | 0.535 ± 0.027 | 0.6481 ± 0.0026 | 0.39 ± 0.0054 | 0.382 ± 0.019 | 0.559 ± 0.025 | 0.475 ± 0.024

— the supplement of paper PMC10724198
